*1 amine or outer side, *2 acyl side, *3 side chain or, on linkers, in order; H or OH if unused. Where a SMILES comes first, the peptide text is derived from it. Side-chain parts run from the residue outwards. [ ]: non-standard residue; d: D form. The star is where a group is joined. DOTA = O=C(O)CN1CCN(CC(=O)O)CCN(CC(=O)*)CCN(CC(=O)O)CC1; NH(2-(imidazol-4-yl)ethyl) = c1ncc(CCN*)[nH]1; Suc = O=C(CCC(=O)[*:2])[*:1]
What was measured:
[1] = test system: inoperable brain tumor in the pons; assay: Treatment of a brain cancer patient with pretargeted bispecific antibody-mediated radioimmunotherapy using an alpha-emitting radionuclide (intravenous)
Protocol: This preparation has an In-111 label to confirm targeting to the brain tumor by gamma camera imaging 24 h later. After two more days, to allow for adequate localization of the bispecific antibody to the tumor and clearance from the body, the Ac-225-IMP 241 of example 7, above, is also injected intravenously, at a dose of 1 mCi.

glioblastoma multiforme = assay: Treatment of a brain cancer patient with pretargeted bispecific antibody-mediated radioimmunotherapy using an alpha-emitting radionuclide (hapten into surgical cavity)
glioblastome multiforme = assay: Treatment of a brain cancer patient with premixed bispecific antibody-mediated radioimmunotherapy using a beta-emitting radionuclide; conditions: 1:1 molar mixture with bispecific antibody of Example 1; 12 mCi Y-90, 10 mg antibody, into reservoir, 4 days post surgery
Protocol: A patient with recently-diagnosed glioblastome multiforme in their left hemisphere, which is limited to a focal lesion, undergoes a gross total resection, with placement of a Rickham reservoir and catheter into the surgically-created resection cavity. Placement of the catheter is confirmed by an MRI scan 24 h later. […] The reservoir and catheter are flushed after the antibody injection.

[2] = 1 mCi i.v. after 30 mg i.v. humanized anti-tenascin x anti-HSG bispecific antibody, 8 weeks later

In the case of `NC(=O)[C@H](CCCCNC(=O)CNC(=O)CCC(=O)NCCc1cnc[nH]1)NC(=O)[C@@H](Cc1ccc(O)cc1)NC(=O)[C@H](CCCCNC(=O)CNC(=O)CCC(=O)NCCc1cnc[nH]1)NC(=O)[C@H](Cc1ccccc1)NC(=O)CN1CCN(CC(=O)O)CCN(CC(=O)O)CCN(CC(=O)O)CC1` [Ac-225-IMP 241, metal not drawn] ({DOTA}-FK([Gly-Suc-NH(2-(imidazol-4-yl)ethyl)])[dY]K([Gly-Suc-NH(2-(imidazol-4-yl)ethyl)])-NH2), the “granulocytes (ANC) and platelets” value [1, 2] is reported as “within the normal range”, the hematological toxicity [1, 2] is reported as “no evidence of hematological toxicity” and the “adverse events from therapy” value (glioblastoma multiforme; 1 mCi into surgical cavity two days after 30 mg i.v. humanized anti-tenascin x anti-HSG bispecific antibody) is reported as “does not experience any adverse events”.

For `Cn1nnc2c(C(N)=O)ncn2c1=O` [temozolomide, reference compound], the “additional reduction of the tumor” value ([1]; temozolomide therapy given three months after the 3-month follow-up of radioimmunotherapy) was 25% and the “tolerability of chemotherapy regimen” value (glioblastoma multiforme; given after radioimmunotherapy) was “tolerated well”.

With `NC(=O)[C@H](CCCCNC(=O)CNC(=O)CCC(=O)NCCc1cnc[nH]1)NC(=O)[C@@H](Cc1ccc(O)cc1)NC(=O)[C@H](CCCCNC(=O)CNC(=O)CCC(=O)NCCc1cnc[nH]1)NC(=O)[C@H](Cc1ccccc1)NC(=O)CN1CCN(CC(=O)O)CCN(CC(=O)O)CCN(CC(=O)O)CC1` (90Y complex, metal not drawn) [Y-90-IMP 241] ({DOTA}-FK([Gly-Suc-NH(2-(imidazol-4-yl)ethyl)])[dY]K([Gly-Suc-NH(2-(imidazol-4-yl)ethyl)])-NH2) the “tolerability of radioimmunotherapy procedure” value (glioblastome multiforme) was “tolerates the radioimmunotherapy procedure well”.
